The results in this text go back to patent US20070148191A1.

The target in this test is CDw52 antigen (CAMPATH-1 antigen) (human) (UniProt P31358). The test is described as follows: cell-based or functional assay.

CAMPATH (antibody) registered a lysis in 51Cr release assay (ADCC) of SaOS-2 osteosarcoma cells with LAK effector cells, after 18 h of 45%.
